By pKd is commonly meant the negative decadic logarithm of the Kd, by convention in mol/L. A higher pKd goes with a low Kd.

The target in assay [1] is Ubiquitin carboxyl-terminal hydrolase isozyme L1 (UCH-L1) (human) (UniProt P09936). The experiment in a line: SPR. In general terms: In SPR one partner is held on a chip, and binding of the other changes the refractive index at the surface.
The next assay has as its target Cofilin-1 (human) (UniProt P23528). The experiment in a line: SPR.

pKd: −log10 of the molar value.

Chain of Ubiquitin carboxyl-terminal hydrolase isozyme L1 (UCH-L1) (human) (P09936 whole entry): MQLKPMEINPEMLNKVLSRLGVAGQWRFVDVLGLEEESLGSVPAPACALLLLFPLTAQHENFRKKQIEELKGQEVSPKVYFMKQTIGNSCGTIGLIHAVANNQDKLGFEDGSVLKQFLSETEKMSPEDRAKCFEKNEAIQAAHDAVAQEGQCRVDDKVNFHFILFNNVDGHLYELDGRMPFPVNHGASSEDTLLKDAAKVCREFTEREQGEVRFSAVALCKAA
Chain of Cofilin-1 (human) (P23528 whole entry): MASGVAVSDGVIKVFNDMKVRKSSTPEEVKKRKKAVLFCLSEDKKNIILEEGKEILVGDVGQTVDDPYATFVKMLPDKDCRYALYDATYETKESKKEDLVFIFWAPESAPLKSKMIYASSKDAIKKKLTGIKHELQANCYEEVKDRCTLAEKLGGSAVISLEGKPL

For the substance “α-synuclein oligomers (αSOs) (from UniProt P37840 1-140) (complex)”, the figures for the pKd (in assay [1]; with Cofilin-1 (human)) were 6.22 and 6.54, respectively.

Source of the values: article PMC10016340.
